Test results from patent CN114426574A (WUHAN VIRUS INST OF CHINESE ACADEMY OF SCIENCES, dated 2022).

Target: WH-RBD-TFc (SARS-CoV-2 spike glycoprotein receptor binding domain, thrombin site, human IgG1 Fc fusion) (SARS-CoV-2; human, UniProt P0DTC2 319-541)

Row | Binder | EC50
1 | Fab F1-B3 (Fab, V domains shown) VH: QVQLQESGGGLVQPGGSLRLSCAASGFTVSSNYMSWVRQAPGEGLEWVSSISSSSSYIYYADSVKGRFTISRDNAKNSLYLQMNSLRAEDTAVYYCARGKWLRGAFDIWGQGTTVTVSS VL: NFMLTQPHSMSESPGKTVTISCTGSSGSIANNYVQWYRQRPGSAPITVIYEDNQRPSGVPDRFSGSIDSSSNSASLTISGLKTEDEADYYCQSYDSSTHWVFGGGTKLTVLG | 12 nM
2 | Fab F1-B5 (Fab, V domains shown) VH: EVQLVQSGGGVVQPGRSLRLSCAASGFTVSSNYMSWVRQAPGKGLEWVSVIYSGGSTYYADSVKGRFTISRDNSKNTLYLQMNSLRAEDTAVYYCARGDGSDDYYYGMDVWGQGTTVTVSS VL: QAVLTQPSSVSGAPGQRVTISCTGSSSNVGAGYDVHWYQQLPGTAPKLLIYGNSNRPSGVPDRFSGSKSGTSASLAITGLQAEDEADYYCQSYDSSLSGSVFGGGTKLTVLG | 63 nM
